# According to the supplement of paper PMC12338614:
# ± gives the uncertainty stated by the source.
# B1: library; numbered along this chain (parent)
# chain: MEVVDPQQLGMFTEGELMSVGMDTFIHRIDSTEVIYQPRRKRAKLIGKYLMGDLLGEGSYGKVKEVLDSETLCRRAVKILKKKKLRRIPNGEANVKKEIQLLRRLRHKNVIQLVDVLYNEEKQKMYMVMEYCVCGMQEMLDSVPEKRFPVCQAHGYFCQLIDGLEYLHSQGIVHKDIKPGNLLLTTGGTLKISDLGVAEALHPFAADDTCRTSQGSPAFQPPEIANGLDTFSGFKVDIWSAGVTLYNITTGLYPFEGDNIYKLFENIGKGSYAIPGDCGPPLSDLLKGMLEYEPAKRFSIRQIRQHSWFRKKHPPAEAPVPIPPSPDTKDRWRSMTVVPYLEDLHGADEDEDLFDIEDDIIYTQDFTVPGQVPEEEASHNGQRRGLPKAVCMNGTEAAQLSTKSRAEGRAPNPARKACSASSKIRRLSACKQQ
# Variants of: B1
# Assay: STK11 functional score (HeLa growth suppression), rescaled enrichment; synonymous median = 1, nonsense median = 0 (normalised score)
# Conditions: with HeLa; variant type: missense
# Method in brief: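 The functional score takes the post/pre-selection log ratio, corrects it to wild type, rescales it to synonymous and nonsense medians, and merges it over codons and replicate transfections, with error from bootstrapping. Counts came from tiled gDNA amplicons sequenced on NextSeq (~2 million reads per tile). The libraries were POPCode codon-randomised, codon-optimised STK11 integrated by Bxb1 at an AAVS1 landing pad in HeLa, three regions with three transfections each.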
row,Variant,STK11 functional score
1,MEVVDPQQLGMFTEGELMSVGMDTFIHRIDSTEVIYQPRRKRAKLIGKYLMGDLLGEGSYGKVKEVLDSETLCRRAVKILKKKKLRRIPNGEANVKKEIQLLRRLRHKNVIQLVDVLYNEEKQKMYMVMEYCVCGMQEMLDSVPEKRFPVCQAHGYFCQLIDGLEYLHSQGIVHKDIKPGNLLLTTGGTLKISDLGVAEALHPFAADDTCRTSQGSPAFQPPEIPNGLDTFSGFKVDIWSAGVTLYNITTGLYPFEGDNIYKLFENIGKGSYAIPGDCGPPLSDLLKGMLEYEPAKRFSIRQIRQHSWFRKKHPPAEAPVPIPPSPDTKDRWRSMTVVPYLEDLHGADEDEDLFDIEDDIIYTQDFTVPGQVPEEEASHNGQRRGLPKAVCMNGTEAAQLSTKSRAEGRAPNPARKACSASSKIRRLSACKQQ [A225P],1.22 ± 0.62
2,MEVVDPQQLGMFTEGELMSVGMDTFIHRIDSTEVIYQPRRKRAKLIGKYLMGDLLGEGSYGKVKEVLDSETLCRRAVKILKKKKLRRIPNGEANVKKEIQLLRRLRHKNVIQLVDVLYNEEKQKMYMVMEYCVCGMQEMLDSVPEKRFPVCQAHGYFCQLIDGLEYLHSQGIVHKDIKPGNLLLTTGGTLKISDLGVAEALHPFAADDTCRTSQGSPAFQPPEIANGLDTFSGFKVDIWSAGVTLYNITTGLYPFEGDNIYKLFENIGKGSYAIPGDCGPPLSDLLKGMLEYEPAKRFSIRQIRQHSWFRKKHPPAEAPVPIPPSPDTKDRWRSMTVVPYLEDLHGADEDEDLFDIEDDIIYTQDFTVPGQVPEEEASHNGQRRGLPKAVCMNGTELAQLSTKSRAEGRAPNPARKACSASSKIRRLSACKQQ [A397L],1.27 ± 0.27
3,MEVVDPQQLGMFTEGELMSVGMDTFIHRIDSTEVIYQPRRKRAKLIGKYLMGDLLGEGSYGKVKEVLDSETLCRRAVKILKKKKLRRIPNGEANVKKEIQLLRRLRHKNVIQLVDVLYNEEKQKMYMVMEYCVCGMQEMLDSVPEKRFPVCQAHGYFCQLIDGLEYLHSQGIVHKDIKPGNLALTTGGTLKISDLGVAEALHPFAADDTCRTSQGSPAFQPPEIANGLDTFSGFKVDIWSAGVTLYNITTGLYPFEGDNIYKLFENIGKGSYAIPGDCGPPLSDLLKGMLEYEPAKRFSIRQIRQHSWFRKKHPPAEAPVPIPPSPDTKDRWRSMTVVPYLEDLHGADEDEDLFDIEDDIIYTQDFTVPGQVPEEEASHNGQRRGLPKAVCMNGTEAAQLSTKSRAEGRAPNPARKACSASSKIRRLSACKQQ [L183A],0.587 ± 0.29
4,MEVVDPQQLGMFTEGELMSVGMDTFIHRIDSTEVIYQPRRKRAKLIGKYLMGDLLGEGSYGKVKEVLDSETLCRRAVKILKKKKLRRIPNGEANVKKEIQLLRRLRHKNVIQLVDVLYNEEKQKMYMVMEYCVCGMQEMLDSVPEKRFPVCQAHGYFCQLIDGLEYLHSQGIVHKDIKPGNLLLTTGGTLKISDLGVAEALHPFAADDTCRTSQGSPAFQPPEIANGLDTFSGFKVDIWSAGDTLYNITTGLYPFEGDNIYKLFENIGKGSYAIPGDCGPPLSDLLKGMLEYEPAKRFSIRQIRQHSWFRKKHPPAEAPVPIPPSPDTKDRWRSMTVVPYLEDLHGADEDEDLFDIEDDIIYTQDFTVPGQVPEEEASHNGQRRGLPKAVCMNGTEAAQLSTKSRAEGRAPNPARKACSASSKIRRLSACKQQ [V243D],-0.0994 ± 0.17
5,MEVVDPQQLGMFTEGELMSVGMDTFIHRIDSTEVIYQPRRKRAKLIGKYLMGDLLGEGSYGKVKEVLDSETLCRRAVKILKKKKLRRIPNGEANVKKEIQLLRRLRHKNVIQLVDVLYNEEKQKMYMVMEYCVCGMQEMLDSVPEKRFPVCQAHGYFCQLIDGLEYLHSQGIVHKDIKPGNLLLTTGGTLKISDLGVAEALHPFAADDTCRTSQGSPAFQPPEIANGLDTFSGFKVDIWSAGVTLYNITTGLYPFEGDNIYKLFENIGKGSYAIPGDCGPPLSDLLKGMLEYEPAKRFSIRQIRQHSWFRKKHPPAEAPVPIPPSPDTKDRWRSMTVVPYLEDLHGADEDEDLFDIEDDIIYTQDFTVPGQVPEEEVSHNGQRRGLPKAVCMNGTEAAQLSTKSRAEGRAPNPARKACSASSKIRRLSACKQQ [A377V],1.31 ± 0.34
6,MEVVDPQQLGMFTEGELMSVGMDTFIHRIDSTEVIYQPRRKRAKLIGKYLMGDLLGEGSYGKVKEVLDSETLCRRAVKILKKKKLRRIPNGEANVKKEIQLLRRLRHKNVIQLVDVLYNEEKQKMYMVMEYCVCGMQEMLDSVPEKRFPVCQAHGYFCQLIDGLEYLHSQGIVHKDIKPGNLLLTTGGTLKISDLGVAEALHPFAADDTCRTSQGSPAFQPPEIANGLDTFSGFKVDIWSAGVTLYNITTGLYPFEGDNIYKLFENIGKGSYAIPGDCGPPLSDLLKGMLEYEPAKRFSIRQIRQHSWFRKKHPPAEAPVPIPPSPDTKDRWRSMTVVPYLEDLHGADEDEDLFDIEDDIIYTQDFTVPGQHPEEEASHNGQRRGLPKAVCMNGTEAAQLSTKSRAEGRAPNPARKACSASSKIRRLSACKQQ [V372H],1.61 ± 0.23
7,MEVVDPQQLGMFTEGELMSVGMDTFIHRIDSTEVIYQPRRKRAKLIGKYLMGDLLGEGSYGKVKEVLDSETLCRRAVKILKKKKLRRIPNGEANVKKEIQLLRRLRHKNVIQLVDVLYNEEKQKMYMVMEYCVCGMQEMLDSVPEKRFPVCQAHGYFCQLIDGLEYLHSQGIVHKDIKPGNLLLTTGGTLKISDLGVAEALHPFAADDTCRTSQGSPAFQPPEIANGLDTFSGFKVDIWSAGVTLYNITTGLYPFEGDNIYKLFENIGKGSYAIPGDCGPPLSDLLKGMLEYEPAKRFSIRQIRQHSWFRKKHPPAEAPVPIPPSPDTKDRWRSMTVVPYLEDLHGADEDEDLFDIEDDIIYTQDFTVPGQVPEEEASHNDQRRGLPKAVCMNGTEAAQLSTKSRAEGRAPNPARKACSASSKIRRLSACKQQ [G381D],1.57 ± 0.29
8,MEVVDPQQLGMFTEGELMSVGMDTFIHRIDSTEVIYQPRRKRAKLIGKYLMGDLLGEGSYGKVKEVLDSETLCRRAVKILKKKKLRRIPNGEANVKKEIQLLRRLRHKNVIQLVDVLYNEEKQKMYMVMEYCVCGMQEMLDSVPEKRFPVCQAHGYFCQLIDGLEYLHSQGIVHKDIKPGNLLLTTGGTLKISDLGVAEALHPFAADDTCRTSQGSPAFQPPEIANGLDTFSGFKVDIWSAGVTLYNITTGLYPFEGDNIYKLFENIGKGSYAIPGDCGPPLSDLLKGMLEYEPAKRFSIRQIRQHSWFRKKHPPAEAPVPIPPSPDTKDRWRSMTVVPYLEDLHGADEDEHLFDIEDDIIYTQDFTVPGQVPEEEASHNGQRRGLPKAVCMNGTEAAQLSTKSRAEGRAPNPARKACSASSKIRRLSACKQQ [D352H],1.27 ± 0.41
9,MEVVDPQQLGMFTEGELMSVGMDTFIHRIDSTEVIYQPRRKRAKLIGKYLMGDLLGEGSYGKVKEVLDSETLCRRAVKILKKKKLRRIPNGEANVKKEIQLLRRLRHKNVIQLVDVLYNEEKQKMYMVMEYCVCGMQEMLDSVPEKRFPVCQAHGYFCQLIDGLEYLHSQGIVHKDIKPGNLLLTTGGTLKISDLGVAEALHPFAADDTCRTSQGSPAFQPPEIANGLDTFSGFKVDIWSAGVTLYNITTGLYPFEGDNIYKLFENIGKGSYAIPGDCGPPLSDLLKGMLEYEPAKRFSIRQIRQHSWFRKKHPPAEAPVPIPPSPDTKDRWRSMTKVPYLEDLHGADEDEDLFDIEDDIIYTQDFTVPGQVPEEEASHNGQRRGLPKAVCMNGTEAAQLSTKSRAEGRAPNPARKACSASSKIRRLSACKQQ [V337K],1.53 ± 0.18
10,MEVVDPQQLGMFTEGELMSVGMDTFIHRIDSTEVIYQPRRKRAKLIGKYLMGDLLGEGSYGKVKEVLDSETLCRRAVKILKKKKLRRIPNGEANVKKEIQLLRRLRHKNVIQLVDVLYNEEKQKMYMVMEYCVCGMQEMLDSVPEKRFPVCQAHGYFCQLIDGLEYLHSQGIVHKDIKPGNLLLTTGGTLKISDLGVAEALHPFAADDTCRTSQGSPWFQPPEIANGLDTFSGFKVDIWSAGVTLYNITTGLYPFEGDNIYKLFENIGKGSYAIPGDCGPPLSDLLKGMLEYEPAKRFSIRQIRQHSWFRKKHPPAEAPVPIPPSPDTKDRWRSMTVVPYLEDLHGADEDEDLFDIEDDIIYTQDFTVPGQVPEEEASHNGQRRGLPKAVCMNGTEAAQLSTKSRAEGRAPNPARKACSASSKIRRLSACKQQ [A218W],0.671 ± 0.25
11,MEVVDPQQLGMFTEGELMSVGMDTFIHRIDSTEVIYQPRRKRAKLIGKYLMGDLLGEGSYGKVKEVLDSETLCRRAVKILKKKKLRRIPNGEANVKKEIQLLRRLRHKNVIQLVDVLYNEEKQKMYMVMEYCVCGMQEMLDSVPEKRFPVCQAHGYFCQLIDGLEYLHSQGIVHKDIKPGNLLLTTGGTLKISDLGVAEALHPFAADDTCRTSQGSPAFQPPEIANGLDTFSGFKVDIWSAGVTLYNITTGLYPFEGDNIYKLFENIGKGSYAIPGDCGPPLSDLLKGMLEYEPAKRFSIRQIRQHSWFRKKHPPAEAPVPIPPSPDTKDRWRSMTVVPYLEDLHGADEDEDLFDIEDDIIYTQDFTVPGQVPEEEASHNGQRRGLPKAVCMNPTEAAQLSTKSRAEGRAPNPARKACSASSKIRRLSACKQQ [G394P],1.52 ± 0.25
12,MEVVDPQQLGMFTEGELMSVGMDTFIHRIDSTEVIYQPRRKRAKLIGKYLMGDLLGEGSYGKVKEVLDSETLCRRAVKILKKKKLRRIPNGEANVKKEIQLLRRLRHKNVIQLVDVLYNEEKQKMYMVMEYCVCGMQEMLDSVPEKRFPVCQAHGYFCQLIDGLEYLHSQGIVHKDIKPGNLLLTTGGTLKISDLGVAEALHPFAADDTCRTSQGSPAFQPPEIANGLDTFSGFKVDIWSAGVTLYNITTGLYPFEGDNIYKLFENIGKGSYAIPGDCGPPLSDLLKGMLEYEPAKRFSIRQIRQHSWFRKKHPPAEAPVPIPPSPDTKDRWRSMTVVPYLEDLHGADEDTDLFDIEDDIIYTQDFTVPGQVPEEEASHNGQRRGLPKAVCMNGTEAAQLSTKSRAEGRAPNPARKACSASSKIRRLSACKQQ [E351T],1.52 ± 0.18
13,MEVVDPQQLGMFTEGELMSVGMDTFIHRIDSTEVIYQPRRKRAKLIGKYLMGDLLGEGSYGKVKEVLDSETLCRRAVKILKKKKLRRIPNGEANVKKEIQLLRRLRHKNVIQLVDVLYNEEKQKMYMVMEYCVCGMQEMLDSVPEKRFPVCQAHGYFCQLIDGLEYLHSQGIVHKDIKPGNLLLTTGGTLKISDLGVAEALHPFAADDTCRTSQGSPAFQPPEIANGLDTFSGFKVDIWSAGVTLYYITTGLYPFEGDNIYKLFENIGKGSYAIPGDCGPPLSDLLKGMLEYEPAKRFSIRQIRQHSWFRKKHPPAEAPVPIPPSPDTKDRWRSMTVVPYLEDLHGADEDEDLFDIEDDIIYTQDFTVPGQVPEEEASHNGQRRGLPKAVCMNGTEAAQLSTKSRAEGRAPNPARKACSASSKIRRLSACKQQ [N247Y],1.32 ± 0.28
14,MEVVDPQQLGMFTEGELMSVGMDTFIHRIDSTEVIYQPRRKRAKLIGKYLMGDLLGEGSYGKVKEVLDSETLCRRAVKILKKKKLRRIPNGESNVKKEIQLLRRLRHKNVIQLVDVLYNEEKQKMYMVMEYCVCGMQEMLDSVPEKRFPVCQAHGYFCQLIDGLEYLHSQGIVHKDIKPGNLLLTTGGTLKISDLGVAEALHPFAADDTCRTSQGSPAFQPPEIANGLDTFSGFKVDIWSAGVTLYNITTGLYPFEGDNIYKLFENIGKGSYAIPGDCGPPLSDLLKGMLEYEPAKRFSIRQIRQHSWFRKKHPPAEAPVPIPPSPDTKDRWRSMTVVPYLEDLHGADEDEDLFDIEDDIIYTQDFTVPGQVPEEEASHNGQRRGLPKAVCMNGTEAAQLSTKSRAEGRAPNPARKACSASSKIRRLSACKQQ [A93S],0.907 ± 0.2
